Consider four molecules from patent publication US20250314643A1, “FLUORESCENT COMPLEXES COMPRISING TWO RHODAMINE DERIVATIVES AND A NUCLEIC ACID MOLECULE” (CENTRE NATIONAL DE LA RECHERCHE SCIENTIFIQUE, priority 2019, published 2025).

The nature of data set [1]: Fluorescence Correlation Spectroscopy (FCS) analysis of the fluoromodules. Format: physicochemical.
The nature of data set [2]: Affinity measurements (Kd, fluorescence titration of Gemini-561 with RNA). The format is binding. The note with it: for Kd: 40 mM potassium phosphate pH 7.5, 100 mM KCl, 1 mM MgCl2, 0.05% Tween 20, 100 nM (SRB-2) or 25 nM (4C10) Gemini-561. The method, then:
The Kd value can be obtained by measuring the fluorescence intensity of the fluorophore in aqueous medium with increasing amount of the said nucleic acid. The plot of the fluorescence intensity versus the concentration of the said nucleic acid will provide the Kd value after fitting with the proper equation (example: Hill equation).
The fluorescence was measured on microplate reader (ex/em 580/620 nm, SpectraMax iD3, Molecular Devices).

Data set [3] in a line: Fluorescence measurement on purified RNA (Gemini-561 activation capacity). Format: biochemical. The note with it: 500 nM RNA, 50 nM Gemini-561, ex/em 560/600 nm. As to the method: FIG. 6A represents Gemini-561 activation capacity of the parental SRB-2 and the evolved 4C10 variant. 500 nM of RNAs were incubated with 50 nM of Gemini-561 and the fluorescence was measured at À ex/em=560/600 nm.
FIG. 7A represents the fluorogenic capacity of SRB-2 and its evolved forms 4C10 and o-Coral. 500 nM of RNAS were incubated With 50 nM of Gemini-561 and the fluorescence was measured at X ex/em=560/600 nm. The values are the mean of 3 independent experiments, each measurement being shown as an open circle. The error bars correspond to ±1 standard deviation.
FIG. 10B represents Contribution of the dimerization and 736 the mutations to o-Coral functionality. SRB-2 aptamer was used as scaffold either in its monomeric 737 (m) or dimeric (d) form containing o-Coral linker. Indicated mutations were then implemented and the 738 different constructs tested as above.
FIG. 10C represents the identification of interacting regions. […]
1 μM purified RNA was heated for 1 min at 90° C. and cooled at 4° C. for 1 min. […] The mixture was then incubated for 10 min at 25° C. prior to measuring the fluorescence at 25° C. 011 a real-time thermocycler (ex/em 575/602 nm, MX 3005P, Agilent) or on microplate reader (ex/em 560/600 nm, SpectraMax iD3, Molecular Devices).

Turning to `CN(C)c1ccc2c(-c3ccccc3C(=O)[O-])c3ccc(N(C)C)cc3[o+]c2c1` [Tetramethylrhodamine], in data set [1] (fluorogen 200 nM, aptamer 1 μM), the “Size (hydrodynamic diameter of fluorescent specie)” value was 1 nm and the “τcorr (correlation time)” value is recorded as 0.032 ms. Further, the “Brightness with respect to one molecule of the standard” value in data set [1] (standard tetramethylrhodamine for o-Coral (532 nm excitation), fluorescein for Broccoli and Corn) was 1.

B1: 4C10: duplicated SRB-2 variant RNA aptamer displaying 6 point mutations (nucleic acid)
chain: AGAACCCCGCUUCGGCGGUGAUGGAGAGGCGCAAGGUUAACCGCCUCAGGUUCCNNNNNNNNNNNNNNNNNNNNNNNNNNNNNNNNNNNNNNNNNNNNNNNNNNNNNNNNNNNNGGGGCCUCGCUUCGGCGAUGAUGGAGAGGCGCAAGGUUAACCGCCUCAGGUUCU
modifications: fluorophore binding aptamers; (55)..(72) N represents A, U, G or C; (73)..(114) N represents A, U, G or C or is absent
notes: duplicated SRB-2 variant RNA aptamer displaying 6 point mutations
As for B1, the dissociation constant (Kd) (commonly the constant that tells how readily two partners part at equilibrium) in data set [2] was around 73 nM. Also, the “capacity to turn on Gemini-561 fluorescence” value in data set [3] is given as “an order of magnitude more fluorescent”.

B2: SRB-2: parental RNA aptamer previously developed to interact with sulforhodamine B (nucleic acid)
chain: GGGAGACAGCUAGAGUACGGAACCUCGCUUCGGCGAUGAUGGACAGGUUCCGACACGAGCACAGUGUAC
modifications: listed as RNA, chemistry not given here
The molecule B2 showed a Kd in data set [2] of around 441 nM. Moreover, in data set [3], the “capacity to turn on Gemini-561 fluorescence” value is reported as “poor”.

B3: o-Coral: light-up RNA aptamer, 4C10 derivative with 6-nucleotide long linker (nucleic acid)
chain: GGGAGACAGCUAGAGUACAGGAACCCCGCUUCGGCGGUGAUGGAGAGGCGCAAGGUUAACCGCCUCAGGUUCCGGUGACGGGGCCUCGCUUCGGCGAUGAUGGAGAGGCGCAAGGUUAACCGCCUCAGGUUCUGACACGAGCACAGUGUAC
modifications: fluorophore binding aptamers
notes: light-up RNA aptamer, 4C10 derivative with 6-nucleotide long linker
B3: in data set [2] (6-nucleotide linker derivative of 4C10), the “fluorogenicity and affinity for Gemini-561 compared with 4C10” value is “conserved both fluorogenicity and affinity”.
